Assay results reported in publication PMC9482650, “Quantitative fragmentomics allow affinity mapping of interactomes” (Nature Communications, 2022).
One block for each binder: values may come before it.

Tests used:
Assay in all cases: holdup assay
Parameters in all cases: key: below the threshold = too weak to quantify, mostly under pKd 3.1 to 4
TX1BP3, O14907 = target: T1, TX1BP3, O14907
T1 sequence (O14907 10-122, limits assumed, looked up): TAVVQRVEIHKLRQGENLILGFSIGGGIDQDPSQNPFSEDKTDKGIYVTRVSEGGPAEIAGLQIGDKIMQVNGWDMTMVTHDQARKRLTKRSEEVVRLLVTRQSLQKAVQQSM

MPDZ_12, O75970 = target: T2, MPDZ_12, O75970
T2 sequence (O75970 1857-1958, limits assumed, looked up): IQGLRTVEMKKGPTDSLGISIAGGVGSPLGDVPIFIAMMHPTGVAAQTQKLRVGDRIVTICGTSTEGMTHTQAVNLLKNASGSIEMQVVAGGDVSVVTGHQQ

SNTG1, Q9NSN8 = target: T3, SNTG1, Q9NSN8
T3 sequence (Q9NSN8 52-150, limits assumed, looked up): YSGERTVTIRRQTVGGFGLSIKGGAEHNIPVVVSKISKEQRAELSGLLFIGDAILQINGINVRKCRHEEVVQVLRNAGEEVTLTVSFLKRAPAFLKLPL

SYNJ2BP, P57105 = target: T4, SYNJ2BP, P57105
T4 sequence (P57105 8-110, limits assumed, looked up): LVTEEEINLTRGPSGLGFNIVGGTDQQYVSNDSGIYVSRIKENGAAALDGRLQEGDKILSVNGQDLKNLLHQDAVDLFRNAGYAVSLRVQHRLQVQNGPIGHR

MAGI2_3, Q86UL8 = target: MAGI2_3, Q86UL8
Sequence of MAGI2_3, Q86UL8 (Q86UL8 600-682): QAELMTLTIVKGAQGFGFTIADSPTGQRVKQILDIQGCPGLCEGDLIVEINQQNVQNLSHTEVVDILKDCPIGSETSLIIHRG

NOS1, P29475 = target: NOS1, P29475
Sequence of NOS1, P29475 (P29475 9-101): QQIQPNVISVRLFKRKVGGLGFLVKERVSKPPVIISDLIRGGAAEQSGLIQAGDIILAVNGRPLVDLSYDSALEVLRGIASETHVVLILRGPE

LDB3, O75112 = target: LDB3, O75112
Sequence of LDB3, O75112 (O75112 1-94): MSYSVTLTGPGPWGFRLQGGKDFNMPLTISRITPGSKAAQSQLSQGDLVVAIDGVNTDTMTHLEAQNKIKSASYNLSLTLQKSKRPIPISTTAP

MAGI3_2, Q5TCQ9 = target: MAGI3_2, Q5TCQ9
Sequence of MAGI3_2, Q5TCQ9 (Q5TCQ9 398-503): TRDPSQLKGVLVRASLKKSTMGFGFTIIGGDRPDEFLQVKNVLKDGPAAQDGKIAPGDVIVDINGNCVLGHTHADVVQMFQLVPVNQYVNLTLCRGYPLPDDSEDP

DLG4_3, P78352 = target: DLG4_3, P78352
Sequence of DLG4_3, P78352 (P78352 306-403): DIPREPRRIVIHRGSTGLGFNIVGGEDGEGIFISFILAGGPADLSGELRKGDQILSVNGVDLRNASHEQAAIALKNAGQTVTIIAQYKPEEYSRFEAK

MAGI2_2, Q86UL8 = target: MAGI2_2, Q86UL8
Sequence of MAGI2_2, Q86UL8 (Q86UL8 410-522): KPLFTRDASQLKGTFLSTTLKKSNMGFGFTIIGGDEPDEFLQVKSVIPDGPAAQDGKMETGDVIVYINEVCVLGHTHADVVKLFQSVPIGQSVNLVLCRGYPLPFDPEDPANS

FRMPD2_2, Q68DX3 = target: FRMPD2_2, Q68DX3
Sequence of FRMPD2_2, Q68DX3 (Q68DX3 944-1038): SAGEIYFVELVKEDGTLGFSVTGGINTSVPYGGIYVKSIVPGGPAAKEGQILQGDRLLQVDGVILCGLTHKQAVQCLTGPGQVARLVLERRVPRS

IL16_1, Q14005 = target: IL16_1, Q14005
Sequence of IL16_1, Q14005 (Q14005 210-306): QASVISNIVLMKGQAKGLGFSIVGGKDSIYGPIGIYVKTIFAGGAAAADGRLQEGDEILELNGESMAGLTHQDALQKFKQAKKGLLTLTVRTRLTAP

DLG4_2, P78352 = target: DLG4_2, P78352
Sequence of DLG4_2, P78352 (P78352 155-259): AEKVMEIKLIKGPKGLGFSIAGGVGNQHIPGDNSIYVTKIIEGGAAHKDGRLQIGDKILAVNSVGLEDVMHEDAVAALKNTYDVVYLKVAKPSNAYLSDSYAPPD

SNTG2, Q9NY99 = target: T5, SNTG2, Q9NY99
T5 sequence (Q9NY99 68-166, limits assumed, looked up): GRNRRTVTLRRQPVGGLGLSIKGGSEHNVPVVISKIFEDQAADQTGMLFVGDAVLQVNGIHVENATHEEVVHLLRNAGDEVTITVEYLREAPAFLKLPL

SNX27, Q96L92 = target: SNX27, Q96L92
SCRIB_2, Q14160 = target: SCRIB_2, Q14160
Sequence of SCRIB_2, Q14160 (Q14160 857-960): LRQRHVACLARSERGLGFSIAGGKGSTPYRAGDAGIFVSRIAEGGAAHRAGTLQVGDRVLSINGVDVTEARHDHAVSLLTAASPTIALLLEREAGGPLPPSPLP

GRIP1_5, Q9Y3R0 = target: T6, GRIP1_5, Q9Y3R0
T6 sequence (Q9Y3R0 568-668, limits assumed, looked up): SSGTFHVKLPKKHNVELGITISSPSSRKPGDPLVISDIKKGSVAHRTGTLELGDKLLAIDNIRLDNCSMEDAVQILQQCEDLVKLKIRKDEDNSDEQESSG

LNX2_2, Q8N448 = target: T7, LNX2_2, Q8N448
T7 sequence (Q8N448 334-432, limits assumed, looked up): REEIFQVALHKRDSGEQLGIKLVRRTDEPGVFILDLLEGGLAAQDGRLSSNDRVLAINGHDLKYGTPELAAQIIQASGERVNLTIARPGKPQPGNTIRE

NHERF3_4, Q5T2W1 = target: T8, NHERF3_4, Q5T2W1
T8 sequence (Q5T2W1 373-468, limits assumed, looked up): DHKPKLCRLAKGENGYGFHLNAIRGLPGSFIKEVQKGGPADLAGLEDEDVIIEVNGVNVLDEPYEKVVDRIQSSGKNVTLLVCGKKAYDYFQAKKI

TIAM2, Q8IVF5 = target: T9, TIAM2, Q8IVF5
T9 sequence (Q8IVF5 885-986, limits assumed, looked up): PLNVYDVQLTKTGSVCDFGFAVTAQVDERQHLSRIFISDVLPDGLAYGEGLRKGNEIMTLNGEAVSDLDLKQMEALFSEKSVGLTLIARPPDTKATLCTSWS

MAGI2_5, Q86UL8 = target: MAGI2_5, Q86UL8
Sequence of MAGI2_5, Q86UL8 (Q86UL8 915-1017): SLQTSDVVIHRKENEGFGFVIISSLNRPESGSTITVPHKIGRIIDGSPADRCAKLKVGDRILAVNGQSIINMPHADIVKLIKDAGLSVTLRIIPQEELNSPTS

GRID2IP_1, A4D2P6 = target: GRID2IP_1, A4D2P6
Sequence of GRID2IP_1, A4D2P6 (A4D2P6 1-87): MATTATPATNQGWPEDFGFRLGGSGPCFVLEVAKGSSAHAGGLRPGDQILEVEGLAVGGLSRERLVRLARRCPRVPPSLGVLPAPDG

DLG5_1, Q8TDM6 = target: DLG5_1, Q8TDM6
Sequence of DLG5_1, Q8TDM6 (Q8TDM6 617-713): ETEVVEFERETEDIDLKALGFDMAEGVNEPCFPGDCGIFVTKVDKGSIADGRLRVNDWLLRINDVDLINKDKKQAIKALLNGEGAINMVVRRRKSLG

TJP1_2, Q07157 = target: TJP1_2, Q07157
Sequence of TJP1_2, Q07157 (Q07157 181-274): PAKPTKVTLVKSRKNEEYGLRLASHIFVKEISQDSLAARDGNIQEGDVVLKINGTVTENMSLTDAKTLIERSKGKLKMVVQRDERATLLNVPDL

PDZRN3_1, Q9UPQ7 = target: T10, PDZRN3_1, Q9UPQ7
T10 sequence (Q9UPQ7 244-349, limits assumed, looked up): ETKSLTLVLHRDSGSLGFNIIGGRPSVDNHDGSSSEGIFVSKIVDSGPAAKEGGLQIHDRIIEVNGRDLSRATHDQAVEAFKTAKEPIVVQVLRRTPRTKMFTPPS

PARD3_3, Q8TEW0 = target: PARD3_3, Q8TEW0
Sequence of PARD3_3, Q8TEW0 (Q8TEW0 582-685): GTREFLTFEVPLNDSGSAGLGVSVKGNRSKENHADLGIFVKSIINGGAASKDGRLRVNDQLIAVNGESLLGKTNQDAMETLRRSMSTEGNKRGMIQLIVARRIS

GRID2IP_2, A4D2P6 = target: GRID2IP_2, A4D2P6
Sequence of GRID2IP_2, A4D2P6 (A4D2P6 272-370): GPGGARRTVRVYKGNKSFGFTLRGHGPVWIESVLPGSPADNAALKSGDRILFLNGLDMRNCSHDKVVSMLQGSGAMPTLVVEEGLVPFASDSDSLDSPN

FRMPD2_1, Q68DX3 = target: FRMPD2_1, Q68DX3
Sequence of FRMPD2_1, Q68DX3 (Q68DX3 770-861): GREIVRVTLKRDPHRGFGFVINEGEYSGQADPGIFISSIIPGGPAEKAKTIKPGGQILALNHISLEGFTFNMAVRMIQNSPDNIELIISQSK

[1] = plain residues with an end cap or a label only (N-terminal biotin on a linker: ado-ado)
[2] = plain residues with an end cap or a label only (N-terminal biotin on a linker: ttds)

pKd (TX1BP3, O14907; [1]): below the threshold
pKd (MPDZ_12, O75970; [1]): below the threshold
pKd (SNTG1, Q9NSN8; [1]): below the threshold
pKd (SYNJ2BP, P57105; [1]): below the threshold
pKd (MAGI2_3, Q86UL8; [1]): below the threshold
pKd (NOS1, P29475; [1]): below the threshold
pKd (LDB3, O75112; [1]): below the threshold
pKd (MAGI3_2, Q5TCQ9; [1]): 4.07
pKd (DLG4_3, P78352; [1]): 3.68
pKd (MAGI2_2, Q86UL8; [1]): 3.96
pKd (FRMPD2_2, Q68DX3; [1]): below the threshold
pKd (IL16_1, Q14005; [1]): below the threshold
pKd (DLG4_2, P78352; [1]): 3.88
pKd (SNTG2, Q9NY99; [1]): 3.52
pKd (SNX27, Q96L92; [1]): below the threshold
pKd (SCRIB_2, Q14160; [1]): below the threshold
pKd (GRIP1_5, Q9Y3R0; [1]): below the threshold
pKd (LNX2_2, Q8N448; [1]): below the threshold
pKd (NHERF3_4, Q5T2W1; [1]): below the threshold
pKd (TIAM2, Q8IVF5; [1]): below the threshold
pKd (MAGI2_5, Q86UL8; [1]): below the threshold
pKd (GRID2IP_1, A4D2P6; [1]): below the threshold
pKd (DLG5_1, Q8TDM6; [1]): below the threshold
pKd (TJP1_2, Q07157; [1]): below the threshold
pKd (PDZRN3_1, Q9UPQ7; [1]): below the threshold
pKd (PARD3_3, Q8TEW0; [1]): below the threshold
pKd (GRID2IP_2, A4D2P6; [1]): 3.83
pKd (FRMPD2_1, Q68DX3; [1]): below the threshold
B1: ACOT6, Q3I5F7 (peptide)
chain: GKKSVKHSKI

pKd (TX1BP3, O14907; [2]): 4.13
pKd (MPDZ_12, O75970; [2]): below the threshold
pKd (SNTG1, Q9NSN8; [2]): 4.53
pKd (SYNJ2BP, P57105; [2]): 4.71
pKd (MAGI2_3, Q86UL8; [2]): below the threshold
pKd (NOS1, P29475; [2]): 3.82
pKd (LDB3, O75112; [2]): below the threshold
pKd (MAGI3_2, Q5TCQ9; [2]): 4.6
pKd (DLG4_3, P78352; [2]): 3.55
pKd (MAGI2_2, Q86UL8; [2]): 3.5
pKd (FRMPD2_2, Q68DX3; [2]): 4.33
pKd (IL16_1, Q14005; [2]): 4.65
pKd (DLG4_2, P78352; [2]): 4.41
pKd (SNTG2, Q9NY99; [2]): 4.42
pKd (SNX27, Q96L92; [2]): 3.75
pKd (SCRIB_2, Q14160; [2]): 3.56
pKd (GRIP1_5, Q9Y3R0; [2]): below the threshold
pKd (LNX2_2, Q8N448; [2]): below the threshold
pKd (NHERF3_4, Q5T2W1; [2]): below the threshold
pKd (TIAM2, Q8IVF5; [2]): below the threshold
pKd (MAGI2_5, Q86UL8; [2]): below the threshold
pKd (GRID2IP_1, A4D2P6; [2]): below the threshold
pKd (DLG5_1, Q8TDM6; [2]): below the threshold
pKd (TJP1_2, Q07157; [2]): below the threshold
pKd (PDZRN3_1, Q9UPQ7; [2]): 4.18
pKd (PARD3_3, Q8TEW0; [2]): 3.91
pKd (GRID2IP_2, A4D2P6; [2]): 3.72
pKd (FRMPD2_1, Q68DX3; [2]): below the threshold
B2: TAGAP, Q8N103 (peptide)
chain: QFQYAKESYI

pKd (TX1BP3, O14907; [2]): 5.99
pKd (MPDZ_12, O75970; [2]): below the threshold
pKd (SNTG1, Q9NSN8; [2]): 3.71
pKd (SYNJ2BP, P57105; [2]): 4.09
pKd (MAGI2_3, Q86UL8; [2]): below the threshold
pKd (NOS1, P29475; [2]): below the threshold
pKd (LDB3, O75112; [2]): 3.99
pKd (MAGI3_2, Q5TCQ9; [2]): below the threshold
pKd (DLG4_3, P78352; [2]): below the threshold
pKd (MAGI2_2, Q86UL8; [2]): below the threshold
pKd (FRMPD2_2, Q68DX3; [2]): below the threshold
pKd (IL16_1, Q14005; [2]): below the threshold
pKd (DLG4_2, P78352; [2]): below the threshold
pKd (SNTG2, Q9NY99; [2]): below the threshold
pKd (SNX27, Q96L92; [2]): 4.91
pKd (SCRIB_2, Q14160; [2]): 3.57
pKd (GRIP1_5, Q9Y3R0; [2]): below the threshold
pKd (LNX2_2, Q8N448; [2]): below the threshold
pKd (NHERF3_4, Q5T2W1; [2]): below the threshold
pKd (TIAM2, Q8IVF5; [2]): below the threshold
pKd (MAGI2_5, Q86UL8; [2]): below the threshold
pKd (GRID2IP_1, A4D2P6; [2]): below the threshold
pKd (DLG5_1, Q8TDM6; [2]): below the threshold
pKd (TJP1_2, Q07157; [2]): below the threshold
pKd (PDZRN3_1, Q9UPQ7; [2]): below the threshold
pKd (PARD3_3, Q8TEW0; [2]): below the threshold
pKd (GRID2IP_2, A4D2P6; [2]): below the threshold
pKd (FRMPD2_1, Q68DX3; [2]): below the threshold
B3: CTNNB1, P35222 (peptide)
chain: NQLAWFDTDL
